This passage reports FRET efficiency results from article PMC6349933.

Holding throughout (assay): FRET or BRET; acceptor photobleaching FRET between ECFP and EYFP fusions in tobacco leaf epidermis; YFP bleached with a 514 nm laser; E = 100(A − B)/B
(In BRET a luciferase serves as donor, and the signal depends on an acceptor being close.)

Test [1] addresses BDR1-ECFP (Arabidopsis thaliana).
A further test deals with EYFP-ROP11 (Arabidopsis) (UniProt O82481).
Test [2] deals with EYFP-ROP11G17V (Arabidopsis) (UniProt O82481).
Test [3] has as its target EYFP-ROP11T22N (Arabidopsis) (UniProt O82481).

Sequence of BDR1-ECFP (Arabidopsis thaliana) (main, as listed by the source): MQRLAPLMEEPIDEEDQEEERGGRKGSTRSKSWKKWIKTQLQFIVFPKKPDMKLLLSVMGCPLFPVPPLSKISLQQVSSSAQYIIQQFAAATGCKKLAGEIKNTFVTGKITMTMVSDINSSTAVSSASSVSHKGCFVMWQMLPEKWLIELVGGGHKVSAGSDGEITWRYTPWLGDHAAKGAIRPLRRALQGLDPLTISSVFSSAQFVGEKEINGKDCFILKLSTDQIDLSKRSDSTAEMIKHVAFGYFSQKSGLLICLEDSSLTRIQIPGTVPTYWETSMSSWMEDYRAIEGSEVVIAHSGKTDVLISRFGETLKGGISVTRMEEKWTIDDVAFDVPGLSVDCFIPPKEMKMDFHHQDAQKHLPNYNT

In turn, EYFP-WAL (natural protein) displayed an FRET efficiency in test [1] of 15%.

Turning to BDR1-ECFP (natural protein), the FRET efficiency is above 10% with EYFP-ROP11 (Arabidopsis), above 10% in test [2] and 0% in test [3].
